Reference: article PMC3328272, “HIV-1 Nef interaction influences the ATP-binding site of the Src-family kinase, Hck” (BMC Chemical Biology, 2012)

Key:
[1] = target: mouse Hck SH3 domain with High Affinity RT loop (HART) (mouse) (UniProt P08103); experiment: SPR
[2] = target: mouse Hck SH3 domain with High Affinity RT loop (HART) (mouse) (UniProt P08103); experiment: HDX-MS; SH3 (50 uM) and Nef-Consensus (117 uM) equilibrated at 4 C for at least 110 min in 20 mM Tris-HCl pH 8.3, 100 mM NaCl, 3 mM DTT; 15-fold dilution into D2O buffer; intact-protein MS; SH3 cooperative unfolding rate free and with Nef (slowdown factor)
[3] = target: wild-type mouse Hck SH3 domain (mouse) (UniProt P08103); experiment: as above
Chain of wild-type mouse Hck SH3 domain (mouse) (P08103 76-136): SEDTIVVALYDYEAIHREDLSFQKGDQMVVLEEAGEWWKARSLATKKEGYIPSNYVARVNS

[4] = target: wild-type mouse Hck SH3 domain (mouse) (UniProt P08103); experiment: SPR
[5] = target: wild-type human Hck SH3 domain (human) (UniProt P08631); experiment: SPR
Chain of wild-type human Hck SH3 domain (human) (P08631 78-138): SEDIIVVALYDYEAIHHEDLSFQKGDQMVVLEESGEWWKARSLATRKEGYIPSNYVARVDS

Chain of HIV-1 Nef-SF2, untagged (P03407 whole entry): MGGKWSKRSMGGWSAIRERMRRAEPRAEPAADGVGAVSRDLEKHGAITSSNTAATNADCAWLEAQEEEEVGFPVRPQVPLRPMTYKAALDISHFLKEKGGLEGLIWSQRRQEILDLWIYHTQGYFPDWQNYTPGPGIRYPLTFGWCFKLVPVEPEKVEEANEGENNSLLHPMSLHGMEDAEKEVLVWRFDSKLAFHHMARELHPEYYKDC

Substance	Kd [1] [nM]	koff [1] [s⁻¹]	kon [1] [M⁻¹ s⁻¹]	fold decrease in SH3 unfolding rate with Nef (slowdown factor) [2] [fold]	fold decrease in SH3 unfolding rate with Nef (slowdown factor) [3] [fold]	Kd [4] [nM]	koff [4] [s⁻¹]	kon [4] [M⁻¹ s⁻¹]	Kd [5] [nM]	koff [5] [s⁻¹]	kon [5] [M⁻¹ s⁻¹]
HIV-1 Nef-SF2, untagged (from UniProt P03407) (natural protein)	10	0.0143	1.42e+06								
HIV-1 Nef-Consensus, untagged	20	0.0324	1.57e+06	50	5.7	80	0.0185	241000	120	0.118	1e+06
